Substrate: CC(C)CC=O
Assay: Enzymatic assay of PadA
Format: biochemical, E. coli
Settings: other: 0.5 mM NAD+, pH 8.0, 25 nM PadA
Experimental: Protein concentration was measured by UV absorbance at 280 nm. […] Enzymatic reactions were initiated by adding 25 nM PadA. The reactions were monitored by measuring the UV absorbance at 340 nm (extinction coefficient, 6.22 mM^−1 cm^−1) as a consequence of NADH generation.

B1: PadA (Escherichia coli K-12) (protein)
chain: MTEPHVAVLSQVQQFLDRQHGLYIDGRPGPAQSEKRLAIFDPATGQEIASTADANEADVDNAVMSAWRAFVSRRWAGRLPAERERILLRFADLVEQHSEELAQLETLEQGKSIAISRAFEVGCTLNWMRYTAGLTTKIAGKTLDLSIPLPQGARYQAWTRKEPVGVVAGIVPWNFPLMIGMWKVMPALAAGCSIVIKPSETTPLTMLRVAELASEAGIPDGVFNVVTGSGAVCGAALTSHPHVAKISFTGSTATGKGIARTAADHLTRVTLELGGKNPAIVLKDADPQWVIEGLMTGSFLNQGQVCAASSRIYIEAPLFDTLVSGFEQAVKSLQVGPGMSPVAQINPLVSRAHCDKVCSFLDDAQAQQAELIRGSNGPAGEGYYVAPTLVVNPDAKLRLTREEVFGPVVNLVRVADGEEALQLANDTEYGLTASVWTQNLSQALEYSDRLQAGTVWVNSHTLIDANLPFGGMKQSGTGRDFGPDWLDGWCETKSVCVRY
notes: made in house
Km: 1946 µM | kcat: 18.6 s⁻¹

— patent US20140329275A1, “BIOCATALYSIS CELLS AND METHODS” (REGENTS OF THE UNIVERSITY OF MINNESOTA, priority 2011, published 2014)
